The text below walks through data of patent publication US20140294817A1 (LEUKOSIGHT, published 2014).

Where only a bound is given, the exact number is not on record here.

The target in assay [1] is T1, Fcγ-receptor I (mice, UniProt P26151 25-404).
T1 construct: whole, on cells; HeLa cells transfected with an FcγRI plasmid, RFP-tagged; also called FcγRI; not shown: red fluorescent protein tag (RFP) attached to the intracellular portion
T1 sequence (looked up): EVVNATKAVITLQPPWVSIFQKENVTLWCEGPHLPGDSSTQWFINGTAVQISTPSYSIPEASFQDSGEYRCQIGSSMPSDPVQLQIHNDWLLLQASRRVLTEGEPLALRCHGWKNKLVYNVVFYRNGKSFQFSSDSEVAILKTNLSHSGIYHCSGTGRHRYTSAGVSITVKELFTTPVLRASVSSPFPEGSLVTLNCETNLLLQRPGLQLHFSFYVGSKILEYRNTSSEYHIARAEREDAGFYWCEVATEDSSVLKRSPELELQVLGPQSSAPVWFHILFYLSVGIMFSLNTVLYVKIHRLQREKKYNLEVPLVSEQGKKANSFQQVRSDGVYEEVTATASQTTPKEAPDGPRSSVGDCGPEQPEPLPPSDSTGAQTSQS
Kind of assay: flow cytometry saturation binding on HeLa cells expressing RFP-tagged FcγRI (FIG. 61A, left panel). The source says:
(§1) There are four Fc-gamma receptors (FcγRs) in mice including: Fcγ-receptor I, Fcγ-receptor III, Fcγ-receptor IV, and Fcγ-receptor IIb. The genes for each of the Fcγ-receptor I, Fcγ-receptor III, Fcγ-receptor IV, and Fcγ-receptor IIb were cloned into four separate plasmids. […] A red fluorescent protein tag (RFP) is attached to the intracellular portion of the FcγR (FIG. 56A). Thus, binding to the FcγR of a transfected HeLa cell will result in a signal transduction that causes the cells to fluoresce red, which may be measured by flow cytometry.
(§2) Polypeptides comprising a first and second Fc fragment of rabbit IgG in dimeric form and whole rabbit IgG were quantified by ELISA, using the whole rabbit IgG as the standards. HeLa cells that express FcγRI, HeLa cells that express FcγRIIb, HeLa cells that express FcγRIII, and HeLa cells that express FcγRIV as described in Example 13 were stained with 2-fold series diluted either with polypeptides comprising a first and second Fc fragment of rabbit IgG in dimeric form or whole rabbit IgG. The cells were then stained with Zenon Alexa Fluor 488 rabbit IgG labeling kits. […] The HeLa cells that express FcγRI, HeLa cells that express FcγRIIb, HeLa cells that express FcγRIII, and HeLa cells that express FcγRIV were gated by red fluorescence (RFP); and the mean fluorescence of Alexa Fluor was measured for the Saturation Binding Curves (FIGS. 61A-D).
Background: In flow cytometry, cells or beads pass a laser one at a time.

The target of assay [2] is T1, Fcγ-receptor I. Kind of assay: flow cytometry saturation binding on HeLa cells expressing FcγRI; reference rabbit IgG.
Description: as §1, §2

The target of assay [3] is T2, Fcγ-receptor III (mice, UniProt P08508 31-261).
T2 construct: whole, on cells; HeLa cells transfected with an FcγRIII plasmid, RFP-tagged; also called FcγRIII; not shown: red fluorescent protein tag (RFP) attached to the intracellular portion
T2 sequence (looked up): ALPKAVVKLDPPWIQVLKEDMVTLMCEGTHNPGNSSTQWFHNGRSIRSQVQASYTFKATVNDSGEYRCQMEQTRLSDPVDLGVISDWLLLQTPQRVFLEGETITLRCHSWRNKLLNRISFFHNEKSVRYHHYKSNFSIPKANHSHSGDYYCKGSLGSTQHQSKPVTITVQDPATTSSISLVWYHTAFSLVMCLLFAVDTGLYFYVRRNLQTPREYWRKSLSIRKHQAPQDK
Kind of assay: flow cytometry saturation binding on HeLa cells expressing FcγRIII; reference rabbit IgG.
Description: as §1, §2

Assay [4] deals with T3, Fcγ-receptor IV (mice).
T3 construct: whole, on cells; HeLa cells transfected with an FcγRIV plasmid, RFP-tagged; also called FcγRIV
T3 sequence (A0A0B4J1G0 whole entry, looked up): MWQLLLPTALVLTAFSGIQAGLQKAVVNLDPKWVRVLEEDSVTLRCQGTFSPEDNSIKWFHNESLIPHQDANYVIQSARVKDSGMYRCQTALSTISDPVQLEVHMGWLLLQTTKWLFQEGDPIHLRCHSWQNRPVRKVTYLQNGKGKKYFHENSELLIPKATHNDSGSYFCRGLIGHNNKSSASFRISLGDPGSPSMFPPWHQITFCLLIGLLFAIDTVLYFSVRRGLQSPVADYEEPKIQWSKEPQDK
Kind of assay: flow cytometry saturation binding on HeLa cells expressing FcγRIV; reference rabbit IgG.
Description: as §1, §2

For assay [5], the target named is T3, Fcγ-receptor IV. Kind of assay: flow cytometry saturation binding on HeLa cells expressing RFP-tagged FcγRIV (FIG. 61D, left panel).
Description: as §1, §2

The target in assay [6] is T4, Fcγ-receptor IIb (mice, UniProt P08101 30-330).
T4 construct: whole, on cells; HeLa cells transfected with an FcγRIIb plasmid, RFP-tagged; also called FcγRIIb; not shown: red fluorescent protein tag (RFP) attached to the intracellular portion
T4 sequence (looked up): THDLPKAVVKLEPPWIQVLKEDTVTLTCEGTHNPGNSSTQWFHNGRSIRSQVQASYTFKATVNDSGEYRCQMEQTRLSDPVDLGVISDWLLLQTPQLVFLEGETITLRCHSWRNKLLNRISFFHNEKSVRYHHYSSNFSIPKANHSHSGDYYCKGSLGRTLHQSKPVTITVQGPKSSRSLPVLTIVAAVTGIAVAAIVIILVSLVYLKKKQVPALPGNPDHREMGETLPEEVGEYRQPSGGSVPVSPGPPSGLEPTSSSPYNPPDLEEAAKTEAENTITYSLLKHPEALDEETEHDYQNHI
Kind of assay: flow cytometry saturation binding on HeLa cells expressing RFP-tagged FcγRIIb (FIG. 61B, left panel).
Description: as §1, §2

Assay [7] addresses T4, Fcγ-receptor IIb. Kind of assay: flow cytometry saturation binding on HeLa cells expressing FcγRIIb; reference rabbit IgG.
Description: as §1, §2

Assay [8] deals with T2, Fcγ-receptor III. Kind of assay: flow cytometry saturation binding on HeLa cells expressing RFP-tagged FcγRIII (FIG. 61C, left panel).
Description: as §1, §2

B1: polypeptide comprising a first and second Fc fragment of rabbit IgG in dimeric form (Fc fusion)
chain: GGSHHHHHHGMASMTGGQQMGRDLYDDDDKAPSTCSKPTCPPPELLGGPSVFIFPPKPKDTLMISRTPEVTCVVVDVSQDDPEVQFTWYINNEQVRTARPPLREQQFNSTIRVVSTLPIAHQDWLRGKEFKCKVHNKALPAPIEKTISKARGQPLEPKVYTMGPPREELSSRSVSLTCMINGFYPSDISVEWEKNGKAEDNYKTTPAVLDSDGSYFLYSKLSVPTSEWQRGDVFTCSVMHEALHNHYTQKSISRSPGKDIVRSSKPTCPPPELLGGPSVFIFPPKPKDTLMISRTPEVTCVVVDVSQDDPEVQFTWYINNEQVRTARPPLREQQFNSTIRVVSTLPIAHQDWLRGKEFKCKVHNKALPAPIEKTISKARGQPLEPKVYTMGPPREELSSRSVSLTCMINGFYPSDISVEWEKNGKAEDNYKTTPAVLDSDGSYFLYSKLSVPTSEWQRGDVFTCSVMHEALHNHYTQKSISRSPGK
notes: The supernatants hold monomeric and dimeric forms; also called dimeric polypeptides; polypeptides in dimeric form
With B1, the Kd with Fcγ-receptor I [1] is at most 3.5 nM; with Fcγ-receptor IV [5], at most 6.3 nM; with Fcγ-receptor IIb [6], at most 9.8 nM; with Fcγ-receptor III [8] it was at most 10.4 nM. Moreover, the “fold enhancement of binding against rabbit IgG” value with Fcγ-receptor I [2] was at least 57.5 fold; with Fcγ-receptor III [3], at least 223 fold; with Fcγ-receptor IV [4], at least 191 fold; with Fcγ-receptor IIb [7], at least 61.7 fold.

What is called Kd is the free concentration of one partner at which half of the binding sites on the other are occupied at equilibrium, for simple one-to-one binding.
